Data reported in patent US5811393A (The Childrens Medical Center Corp., priority 1993, dated 1998).

Experiments:
[1] = tested on: bovine aortic smooth muscle cells (BASMC); assay: Bovine aortic smooth muscle cell proliferation by cell counting; type: cell-based; settings: 100 pg/ml; cells counted after three days, 1% calf serum
Experimental: Bovine aortic smooth muscle cell proliferation was also assayed by counting cell number following growth factor stimulation. In these experiments, cells were plated sparsely in 24 well plates in DMEM/10% bovine calf serum/1% GPS (100% GPS is glutamine 29.2 mg/ml, penicillin 10,000 units/ml, streptomycin sulfate 10,000 μg/ml; GIBCO, Grand Island, N.Y.) at 10^4 cells/well. Test samples were then added and, after three days, cells were removed by trypsinization and counted in a Coulter counter (Coulter, Hialeah, Fla.).
BASMC were plated in DMEM, 10% calf serum, 100 U/ml penicillin, 100 μg/ml streptomycin sulfate at 5×10^3 cells/well in a 24 well plate, and, after attachment of the cells (e.g., following an overnight incubation), the media was replaced with DMEM, 1% calf serum, and penicillin and streptomycin as above. HB-EHM, recombinant human EGF (Creative Biomolecules, Hopkinton, Mass.), or recombinant PDGF (Creative Biomolecules, Hopkinton, Mass.) was then added to the wells. Cells were counted after three days.

EGF receptors on BASMC = assay: Competitive [125I]EGF binding to bovine aortic smooth muscle cells
Experimental: (§1) Competitive binding assays were used to measure this interaction and were performed as follows.

[2] = Stability of growth-stimulatory activity to acid, heat and DTT (read out in BALB/c 3T3 [3H]-thymidine assay); type: physicochemical
Experimental: Conditioned medium was assayed for growth factor activity directly, as described below, using either fibroblasts (i.e., BALB/c mouse 3T3 cells), epithelial cells (i.e., human keratinocytes), or smooth muscle cells (i.e., bovine aortic smooth muscle cells, BASMC). Alternatively, CM was first fractionated by fast protein liquid chromatography (FPLC, Pharmacia, Piscataway, N.J.) by applying 500 ml of the CM to a TSK-heparin 5PW column (8×75 mm, TOSOHAAS, Philadelphia, Pa.). The column was washed with 10 column volumes of equilibration buffer (0.2M NaCl, 0.01M Tris-HCl, pH 7.5), and bound protein was eluted with a 40 ml linear gradient of 0.2-2M NaCl in 0.01M Tris-HCl , pH 7.4 at 1 ml/min. Fractions (2.5 ml) were tested for growth factor activity by measuring the effect of aliquots of the fractions on DNA synthesis in, or the proliferation of, BALB/c mouse 3T3 cells; such activity was monitored by assaying the incorporation of [^3 H]-thymidine into DNA and/or by measuring the increase in cell number. Measurement of DNA synthesis in BALB/c mouse 3T3 cells was performed as described by Shing et al. (223 Science 1296, 1984, hereby incorporated by reference). One unit of BALB/c mouse 3T3 stimulation activity was defined as the amount of growth factor required to stimulate half-maximal DNA synthesis in BALB/c mouse 3T3 cells under the conditions described in Shing et al. (supra). To measure DNA synthesis in bovine capillary endothelial cells, cells were trypsinized and re-plated sparsely (1×10^4 cells/well) with 400 μl of Dulbecco's modified Eagle's medium (DMEM, GIBCO, Grand Island, N.Y.) supplemented with 10% bovine calf serum (GIBCO, Grand Island, N.Y.) and antibiotics (100 units/ml penicillin and 100 μg/ml streptomycin sulfate, GIBCO, Grand Island, N.Y.) in 48-well plates (Costar, Cambridge, Mass.). After 24 hours of incubation, the medium was replaced with the same volume of DMEM supplemented with 2% bovine calf serum, antibiotics, 1 μM thymidine and 0.5% bovine serum albumin. After 24 hours of incubation, the test samples were added to the wells. Eighteen hours later, [^3 H]-thymidine (0.6 uCi/well, New England Nuclear, Wilmington, Del.) was added. After an additional 5 hours, each plate was treated by the same procedure as used to harvest the BALB/c mouse 3T3 cells to measure the incorporation of [^3 H]-thymidine into the DNA of the cells. To measure DNA synthesis in bovine aortic smooth muscle cells (from Dr. H. Weich, Children's Hospital, Boston), the cells were trypsinized and re-plated sparsely (1×10^4 cells/well) with 400 μl of DMEM supplemented with 10% Colorado calf serum (Colorado Serum Company) and antibiotics (100 units/ml penicillin and 100 μg/ml streptomycin sulfate, GIBCO, Grand Island, N.Y.) in 48-well plates. […]

EGF receptor = EGF receptor autophosphorylation in A-431 cells (anti-phosphotyrosine Western blot); type: cell-based, human; settings: 5 ng/ml, 15 minutes
Experimental: This was shown by plating A-431 cells in 6-well plates and culturing in Dulbecco's Modified Eagle's Medium (DMEM) containing 10% fetal bovine serum and antibiotics. […] After 15 minutes, the cells were washed with ice-cold phosphate-buffered saline containing 0.4 mm EDTA, 10 mM Na-fluorate, 10 mM Na-pyrophosphate and 0.4 mM Na-orthovanadate, scraped and lysed in 100 μl of PI/RIPA buffer [1% NP-40 (Pierce, Rockford, Ill.), 1% deoxycholate (Aldrich, Milwaukee, Wis.), 0.1% SDS, 1% aprotinin (Boehringer-Mannheim, Indianapolis, Ind.), 1 mM PMSF (Pierce), 2 mM EDTA (Sigma), 10 mM Na-fluorate, (Sigma, St. Louis, Mo.), 10 mM Na-pyrophosphate (Baker, Phillipsburg, N.J.), 0.4 mM Na-orthovanadate, (Aldrich), 10 mM iodoacetamide (Aldrich) in phosphate buffered saline]. Thirty μl of supernatant clarified by spinning for a 5 minute period in a microfuge was analyzed by reducing SDS/polyacrylamide gel electrophoresis (6% polyacrylamide gel). […] A standard of phosphorylated EGF receptor was purchased from UBI (Lake Placid, N.Y.).

[3] = tested on: EGF receptors on A-431 cells; assay: Competitive [125I]EGF binding to A-431 cells; set-up: species or system human
Experimental: as §1

[4] = tested on: bovine capillary endothelial cells; assay: Proliferation / DNA synthesis of bovine capillary endothelial cells; type: cell-based; settings: purified form
Experimental: Conditioned medium was assayed for growth factor activity directly, as described below, using either fibroblasts (i.e., BALB/c mouse 3T3 cells), epithelial cells (i.e., human keratinocytes), or smooth muscle cells (i.e., bovine aortic smooth muscle cells, BASMC). Alternatively, CM was first fractionated by fast protein liquid chromatography (FPLC, Pharmacia, Piscataway, N.J.) by applying 500 ml of the CM to a TSK-heparin 5PW column (8×75 mm, TOSOHAAS, Philadelphia, Pa.). The column was washed with 10 column volumes of equilibration buffer (0.2M NaCl, 0.01M Tris-HCl, pH 7.5), and bound protein was eluted with a 40 ml linear gradient of 0.2-2M NaCl in 0.01M Tris-HCl , pH 7.4 at 1 ml/min. Fractions (2.5 ml) were tested for growth factor activity by measuring the effect of aliquots of the fractions on DNA synthesis in, or the proliferation of, BALB/c mouse 3T3 cells; such activity was monitored by assaying the incorporation of [^3 H]-thymidine into DNA and/or by measuring the increase in cell number. Measurement of DNA synthesis in BALB/c mouse 3T3 cells was performed as described by Shing et al. (223 Science 1296, 1984, hereby incorporated by reference). One unit of BALB/c mouse 3T3 stimulation activity was defined as the amount of growth factor required to stimulate half-maximal DNA synthesis in BALB/c mouse 3T3 cells under the conditions described in Shing et al. (supra). […]

B1: HB-EHM: novel heparin binding growth factor with EGF-homologous segment, purified from U-937 lymphoma cell conditioned medium, about 22 kD (protein)
chain: RVTLSSKPQALATPNKEEHGKRKKKGKGLGKKRDPCLRKYKDFCIHGECKYVKELRAPSCICHPGYHGERCHGLS
modifications: O-linked glycosylation (suggested by O-glycanase treatment; the threonines predicted at positions 2 and 12 of the form first sequenced were not detected in protein sequencing)
- increase in BASMC proliferation [1]: 2.5 fold
- 50% inhibition of [125I]EGF binding (EGF receptors on BASMC; BASMC, 6-well plates): 63 pg/mL
- binding to EGF receptors on SMC (EGF receptors on BASMC; purified HB-EHM): found to bind
- growth-stimulatory activity after exposure to DTT ([2]; 5 mM DTT for 2 hours, 3T3 [3H]-thymidine readout): destroyed completely
- activity after acid treatment with glycine-HCl ([2]; 0.1M glycine-HCl, pH 2.5 for 2 hours): not lost
- growth-stimulatory activity after heating ([2]; 90° C. for 5 minutes, 3T3 [3H]-thymidine readout): not destroyed
- growth-stimulatory activity after exposure to pH 2.5 ([2]; pH 2.5 for 2 hours, 3T3 [3H]-thymidine readout): resistant
- autophosphorylation of the EGF receptor (170 kDa protein) (EGF receptor): triggered autophosphorylation
- inhibition of the binding of [125I]EGF to A-431 cells ([3]; maximal competition, confluent A-431 cells): ~100%
- binding to EGF receptors on A-431 cells ([3]; purified HB-EHM): found to bind
- proliferation of bovine capillary endothelial cells [4]: did not stimulate proliferation
